Assay results: paper PMC8533794, “Selection of a Nuclease-Resistant RNA Aptamer Targeting CD19”

Legend:
[1] = target: T1, CD19 on transfected COS-7 cells (human) (UniProt P15391); assay: cell binding RT-qPCR; details: 200 nM aptamer, poly(I); 2'-fluoro pyrimidines; BLI: running buffer not stated (tips prehydrated in PBS), temperature not stated; cell binding: serum-free medium, 37 C, 30 min, with poly(I) 0.1 ug/uL (qPCR) …
T1 sequence: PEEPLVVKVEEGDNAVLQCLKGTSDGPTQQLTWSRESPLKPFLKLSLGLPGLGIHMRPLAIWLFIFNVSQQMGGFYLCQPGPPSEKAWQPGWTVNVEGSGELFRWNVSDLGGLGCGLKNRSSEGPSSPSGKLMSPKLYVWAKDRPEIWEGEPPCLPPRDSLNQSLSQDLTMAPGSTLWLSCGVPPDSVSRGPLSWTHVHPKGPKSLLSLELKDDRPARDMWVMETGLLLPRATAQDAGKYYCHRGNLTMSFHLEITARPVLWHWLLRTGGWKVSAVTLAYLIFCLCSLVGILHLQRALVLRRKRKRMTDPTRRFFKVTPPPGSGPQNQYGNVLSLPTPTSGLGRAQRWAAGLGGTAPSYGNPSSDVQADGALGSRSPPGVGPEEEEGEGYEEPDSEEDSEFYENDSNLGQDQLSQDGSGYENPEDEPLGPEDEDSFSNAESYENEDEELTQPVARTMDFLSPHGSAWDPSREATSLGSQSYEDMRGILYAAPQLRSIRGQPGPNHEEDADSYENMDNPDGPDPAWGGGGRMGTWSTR

[2] = target: T2, endogenous CD19 of MEC-1 cells (human (MEC-1 B-CLL cell line)) (UniProt P15391); assay: flow cytometry; details: 2'-fluoro pyrimidines; BLI: running buffer not stated (tips prehydrated in PBS), temperature not stated; cell binding: serum-free medium, 37 C, 30 min, with poly(I) 0.1 ug/uL (qPCR) …
T2 sequence: T1 sequence

[3] = target: T3, rhCD19 (recombinant human CD19, extracellular domain) (human, UniProt P15391 20-291); assay: BLI; 2.5-100 nM aptamer; BLI: running buffer not stated (tips prehydrated in PBS), temperature not stated; cell binding: serum-free medium, 37 C, 30 min, with poly(I) 0.1 ug/uL (qPCR) or tRNA 0.4 ug/uL plus 100 nM Ctrl Apt (FACS); pull-down lysis: 10 mM Tris-HCl pH 7.5, 200 mM NaCl, 5 mM EDTA, 0.1% Triton X-100; details: protein: recombinant
[4] = target: rhBCMA (B Cell Maturation Antigen) (human, UniProt Q02223 1-54); assay: BLI; up to 1 uM aptamer; BLI: running buffer not stated (tips prehydrated in PBS), temperature not stated; cell binding: serum-free medium, 37 C, 30 min, with poly(I) 0.1 ug/uL (qPCR) or tRNA 0.4 ug/uL plus 100 nM Ctrl Apt (FACS); pull-down lysis: 10 mM Tris-HCl pH 7.5, 200 mM NaCl, 5 mM EDTA, 0.1% Triton X-100; details: protein: recombinant
Sequence of rhBCMA (B Cell Maturation Antigen) (Q02223 1-54): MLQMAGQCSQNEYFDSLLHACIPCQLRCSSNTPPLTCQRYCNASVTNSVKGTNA

[5] = target: T3, rhCD19 (recombinant human CD19, …); assay: as above; details: protein: recombinant

Molecule: UGAGCCCUGUUCGACAGGAGGCUCA [B85.T2]
- binding signal (fold over parental COS-7) [1]: 22

Molecule: CCUGUUGUUCGACAGGAGGCUCACAACAGG [B88.T2]
- binding signal (fold over parental COS-7) [1]: 7

Molecule: UGAGCCCUGUUCGACAGGAGGCUCA [B85.T2 (FAM)]
- binding signal (fold over Jurkat) [2]: 2

B1: B85.T2 (structured_RNA)
RNA: UGAGCCCUGUUCGACAGGAGGCUCA
modifications: 2'-fluoro pyrimidines
- Kd [3]: 49.9 ± 13 nM
- binding result [4]: no binding

B2: Ctrl Apt (structured_RNA)
RNA: UUCGUACCGGGUAGGUUGGCUUGCACAUAGAACGUGUCA
modifications: 2'-fluoro pyrimidines
- binding result [5]: no binding
